Test results: article PMC2659877

Legend:
[1] = target: β-spectrin consisting of residues 1898–2083 (Spβ) (UniProt P11277); experiment: ITC
[2] = target: spin labeled SpαΔ 49R1 (UniProt P02549); experiment: spin label EPR titration
[3] = target: β-spectrin (Homo sapiens) (UniProt P11277); experiment: ITC; details: cited from earlier work
[4] = target: β-spectrin (Homo sapiens) (UniProt P11277); experiment: ITC; details: cited from earlier work; remark: listed apart in the source
[5] = target: β-spectrin (Homo sapiens) (UniProt P11277); experiment: ITC; details: cited from earlier work; remark: listed apart in the source
[6] = target: β-spectrin (Homo sapiens) (UniProt P11277); experiment: ITC; details: cited from earlier work; remark: listed apart in the source

Row | Substance | Kd [1] | other results
1 | spin labeled SpαΔ 53R1 (from UniProt P02549 1-368) (domain or fragment) | 3.3 µM | –
2 | spin labeled SpαΔ 49R1 (from UniProt P02549 1-368) (domain or fragment) | > 30 µM | –
3 | spin labeled SpαΔ 46R1 (from UniProt P02549 1-368) (domain or fragment) | 5.9 µM | –
4 | spin labeled SpαΔ 20R1 (from UniProt P02549 1-368) (domain or fragment) | 1.5 µM | –
5 | cysteine-less fragment of the first 368 residues of α-spectrin (from UniProt P02549 1-368) (domain or fragment) | 0.9 µM | –
6 | spin labeled SpαΔ 45R1 (from UniProt P02549 1-368) (domain or fragment) | 2.9 µM | –
7 | β-spectrin consisting of residues 1898–2083 (Spβ) (from UniProt P11277 1898-2083) (domain or fragment) | – | Kd [2]: 98 µM
8 | spin labeled SpαΔ 48R1 (from UniProt P02549 1-368) (domain or fragment) | 3.1 µM | –
9 | α-spectrin (from UniProt P02549) | – | Kd [3]: 14 µM; Kd [4]: 0.5 µM; Kd [5]: > 200 µM; Kd [6]: 0.4 µM
